Patent US20140220589

Molecular target: T1, H11 peptide FLVMFLSG (SEQ. ID. NO.: 1) (not fully specified)
T1 chain: FLVMFLSG

B1: streptococcal pyogenix exotoxin B (SpeB) (protein)
chain: QPVVKSLLDSKGIHYNQGNPYNLLTPVIEKVKPGEQSFVGQHAATGCVATATAQIMKYHNYPNKGLKDYTYTLSSNNPYFNHPKNLFAAISTRQYNWNNILPTYSGRESNVQKMAISELMADVGISVDMDYGPSSGSAGSSRVQRALKENFGYNQSVHQINRGDFSKQDWEAQIDKELSQNQPVYYQGVGKVGGHAFVIDGADGRNFYHVNWGWGGVSDGFFRLDALNPSALGTGGGAGGFNGYQSAVVGIKP
proteolytic activity in a microplate assay (rate of color development, mOD/min); lower limit of detection: The lower limit of detection was 100 pg of purified SpeB
